The values below are quoted from earlier work in PMC9326902.

The Kd is the constant that tells how readily two partners part at equilibrium.

The series deals with Hemoglobin (Homo sapiens) (UniProt P69905).
Sequence of UniProt P69905 (P69905 2-142, chain 1 of 2): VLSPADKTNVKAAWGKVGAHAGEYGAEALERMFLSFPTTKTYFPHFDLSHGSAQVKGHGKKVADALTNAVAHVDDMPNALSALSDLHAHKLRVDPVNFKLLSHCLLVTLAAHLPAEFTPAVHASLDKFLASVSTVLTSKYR
Sequence of UniProt P69905 (P68871 2-147, chain 2 of 2, further chain): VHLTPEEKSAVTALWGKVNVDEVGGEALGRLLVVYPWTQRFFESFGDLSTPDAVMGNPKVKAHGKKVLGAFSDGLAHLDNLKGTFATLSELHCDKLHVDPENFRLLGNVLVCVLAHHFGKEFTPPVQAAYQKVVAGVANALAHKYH

In the case of IsdH N2 (from UniProt Q2FXJ2), the Kd was 7.5 µM.
